The source of these data is US20250290040A1.

This test deals with IFNγR-IL2/IL15R signal converter. The experiment in a line: cell-based or functional assay.
IFNγR-IL2/IL15R signal converter, sequence (chain, as listed by the source limits assumed, chain 1 of 2): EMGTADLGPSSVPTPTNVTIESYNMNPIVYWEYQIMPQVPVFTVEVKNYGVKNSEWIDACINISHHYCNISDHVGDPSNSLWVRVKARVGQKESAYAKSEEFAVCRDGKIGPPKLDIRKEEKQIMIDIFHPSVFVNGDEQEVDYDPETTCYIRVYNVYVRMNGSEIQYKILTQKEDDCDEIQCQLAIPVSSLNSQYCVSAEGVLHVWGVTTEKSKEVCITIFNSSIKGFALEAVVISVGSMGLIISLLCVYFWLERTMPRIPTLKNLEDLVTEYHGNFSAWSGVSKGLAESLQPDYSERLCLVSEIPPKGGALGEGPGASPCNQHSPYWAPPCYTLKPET
IFNγR-IL2/IL15R signal converter, sequence (chain, as listed by the source limits assumed, chain 2 of 2): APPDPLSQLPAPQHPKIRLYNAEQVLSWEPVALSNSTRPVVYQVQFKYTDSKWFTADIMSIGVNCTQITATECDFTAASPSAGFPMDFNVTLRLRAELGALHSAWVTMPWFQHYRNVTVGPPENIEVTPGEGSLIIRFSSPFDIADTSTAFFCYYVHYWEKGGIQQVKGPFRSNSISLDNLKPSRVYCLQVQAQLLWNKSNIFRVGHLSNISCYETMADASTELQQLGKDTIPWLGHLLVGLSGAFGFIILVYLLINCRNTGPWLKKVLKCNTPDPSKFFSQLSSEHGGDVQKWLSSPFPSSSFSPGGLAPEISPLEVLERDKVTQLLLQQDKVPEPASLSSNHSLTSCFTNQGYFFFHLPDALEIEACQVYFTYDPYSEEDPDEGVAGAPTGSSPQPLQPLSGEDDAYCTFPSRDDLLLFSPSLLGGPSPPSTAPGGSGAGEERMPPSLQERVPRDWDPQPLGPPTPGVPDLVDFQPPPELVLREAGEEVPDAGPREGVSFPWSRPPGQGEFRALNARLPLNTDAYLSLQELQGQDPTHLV

Consider “IFN-γ (from UniProt P01579 24-166) (ligand)”, for which the cell proliferation (Tag-it violet cell tracking staining), 6 days under IFN-γ treatment was 40% and the percentage of proliferation (flow cytometry, Tag-it Violet), 6 days, 5 ng/mL IFN-γ turned out to be 42.3%.
